According to patent publication US20060287503, “Retinoid X receptor-interacting polypeptides and related molecules and methods” (published 2006):

T1: RIP15 (Mus musculus, UniProt Q60644 SEQ:1-446)
T1 chain: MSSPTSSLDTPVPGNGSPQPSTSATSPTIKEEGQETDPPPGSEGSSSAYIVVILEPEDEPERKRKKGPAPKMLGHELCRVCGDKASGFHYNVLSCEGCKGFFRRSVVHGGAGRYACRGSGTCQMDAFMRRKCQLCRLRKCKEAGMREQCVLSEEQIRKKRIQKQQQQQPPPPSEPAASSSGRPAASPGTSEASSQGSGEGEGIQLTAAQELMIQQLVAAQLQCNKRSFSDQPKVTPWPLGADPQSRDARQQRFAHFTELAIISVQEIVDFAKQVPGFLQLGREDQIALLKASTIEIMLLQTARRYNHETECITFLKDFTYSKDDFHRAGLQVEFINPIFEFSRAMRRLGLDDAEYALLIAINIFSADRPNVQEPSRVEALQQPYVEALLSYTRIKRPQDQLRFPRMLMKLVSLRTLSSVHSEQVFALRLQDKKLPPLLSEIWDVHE


Key:
[1] = target: T2, RIP14-1/RXRalpha heterodimer (Mus musculus / Homo sapiens, UniProt Q60641-2;P19793 Q60641-2:1-484,P19793:1-462); experiment: EMSA; competition with 50-fold unlabeled betaRARE (specific) and AP1 (nonspecific) tested; conditions: tags: human RXRalpha expressed in E. coli; label: 32P end label
Protocol: (§1) In panel A, RIP14-1 without (lane 2) or with RXR (lanes 3-5) was incubated with the hsp27 promoter (EcRE) end-labeled with [³²P]ATP. In panel B, RIP15 (lanes 2-5) and RIP14-1 (lanes 9-12) without (lanes 2 and 9) or with (lanes 3-5 and 10-12) RXR were incubated with βRARE end-labeled with [³²P]ATP. In both cases, a 50-fold molar excess of unlabeled specific (sp; EcRE, lane A4 and βRARE, lanes B4 and B11) or nonspecific (ns; AP1, lanes A5, B5, and B12) oligomers were added with the labeled probe. Incubations with probe alone are shown in lanes A1, B1, and B8. Cell lysates used for in vitro translation were also incubated with the probes without (lanes A6 and B6) or with (lanes A7 and B7) RXR. RIP14-2 and the RIP14-1 chimeras containing a four amino acid insertion in the D domain (RIP14C) were also incubated with βRARE and RXR as shown in lanes B13 and B14, respectively. Specific bands are indicated by arrows.
(§2) To identify DNA sequences recognized by each orphan, in vitro translated proteins were used for gel shift assays. Because of their strong sequence similarity to the ecdysone receptor, a well studied ecdysone response element (EcRE) from the Drosophila hsp27 promoter (Riddilough et al., EMBO J. 6:3729-3734, 1987) was tested for binding to both orphans, in the presence and absence of RXR. […]

[2] = target: T2, RIP14-1/RXRalpha heterodimer; experiment: EMSA; competition with 50-fold unlabeled EcRE (specific) and AP1 (nonspecific) tested; 40 mM KCl, 2.5 mM MgCl2, pH 8.0, room temp; conditions: tags: human RXRalpha expressed in E. coli; label: 32P end label
Protocol: as §1, §2

RIP15 = target: T1, RIP15; experiment: EMSA; without RXR; conditions: label: 32P end label
Protocol: (§3) The binding of the RIP14-2 isoform to this element was weaker than that of RIP14-1 when similar amounts of RIP14 proteins were used. […] Several other DNA elements were tested in the gel shift assay, including the retinoic acid response element from the promoter of the human RARβ2 isoform (βRARE) (de The et al., Nature 343:177-180, 1990). In the presence of RXR, the βRARE was bound by both the RIP14 isoforms and RIP15 (FIG. 8, panel B). Again, the binding of the RIP14-2/RXR heterodimer was weaker than the RIP14-1/RXR heterodimer when a similar amount of RIP14 proteins were used (FIG. 8, panel B, lanes 10 and 14).
(§4) RIP14 and RIP15 proteins were produced by in vitro translation (Promega TNT, Madison, Wis.) using expression vectors containing the RIP genes following a T7 promoter. To generate full length RIP14-2 constructs, fragments from RIP14-1 clone No. 15 containing regions from the middle of the E domain to the 3′ end replaced the corresponding regions of RIP14-2 Clones No. 3 or 12, respectively. Sequences were confirmed by DNA sequencing. Human RXRα protein was expressed in E. coli using a bacterial expression vector based on the bacteriophage T7 promoter (Carter et al., Mol. Cell. Biol. in press., 1994). […]

[3] = target: RIP15/RXRalpha heterodimer (Mus musculus / Homo sapiens, UniProt Q60644;P19793 Q60644:1-446,P19793:1-462); experiment: EMSA; with RXR; conditions: tags: human RXRalpha expressed in E. coli; label: 32P end label
Protocol: as §3, §4

T2 sequence (Q60641 other isoform, or with tags, fused parts or gaps, chain 1 of 2): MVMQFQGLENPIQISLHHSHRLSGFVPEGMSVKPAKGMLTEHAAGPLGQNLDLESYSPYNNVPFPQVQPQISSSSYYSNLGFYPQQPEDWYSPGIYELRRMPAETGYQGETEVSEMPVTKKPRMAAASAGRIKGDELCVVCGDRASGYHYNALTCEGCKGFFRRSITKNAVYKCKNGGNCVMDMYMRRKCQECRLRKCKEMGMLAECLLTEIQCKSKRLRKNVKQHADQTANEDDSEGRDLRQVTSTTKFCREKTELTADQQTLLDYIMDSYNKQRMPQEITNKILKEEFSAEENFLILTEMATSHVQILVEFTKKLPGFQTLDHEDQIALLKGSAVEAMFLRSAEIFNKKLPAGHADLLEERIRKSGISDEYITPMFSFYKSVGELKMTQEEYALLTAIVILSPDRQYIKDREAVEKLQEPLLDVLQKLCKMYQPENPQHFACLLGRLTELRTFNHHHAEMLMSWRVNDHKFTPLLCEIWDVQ
T2 sequence (P19793 whole entry, chain 2 of 2): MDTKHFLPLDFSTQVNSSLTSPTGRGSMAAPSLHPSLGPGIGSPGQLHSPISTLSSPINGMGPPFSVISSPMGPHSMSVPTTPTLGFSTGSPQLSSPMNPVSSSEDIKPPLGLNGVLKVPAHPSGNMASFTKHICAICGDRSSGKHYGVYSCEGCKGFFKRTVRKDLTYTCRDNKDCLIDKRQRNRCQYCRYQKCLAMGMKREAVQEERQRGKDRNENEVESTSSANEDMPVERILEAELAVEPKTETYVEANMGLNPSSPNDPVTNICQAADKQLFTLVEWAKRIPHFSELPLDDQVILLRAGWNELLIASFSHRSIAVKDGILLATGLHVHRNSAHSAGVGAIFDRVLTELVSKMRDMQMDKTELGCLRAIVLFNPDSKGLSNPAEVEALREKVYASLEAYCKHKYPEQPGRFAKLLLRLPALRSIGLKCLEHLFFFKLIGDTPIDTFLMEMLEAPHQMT
RIP15/RXRalpha heterodimer, sequence (P19793 whole entry, one chain of several): as the sequence (P19793 whole entry, chain 2 of 2) above

Row | Binder | binding result [1] | binding result [2] | binding result (RIP15) | binding result [3]
1 | betaRARE (dsDNA) DNA 1: GATCCGGGTAGGGTTCACCGAAAGTTCACTCGA DNA 2: TCGAGTGAACTTTCGGTGAACCCTACCCGGATC | binds | – | – | –
2 | hsp27 EcRE (dsDNA) DNA 1: CTAGACAAGGGTTCAATGCACTTGTCCATCG DNA 2: CGATGGACAAGTGCATTGAACCCTTGTCTAG | – | binds | no binding | no binding
